Assay: Ni-NTA pull-down of conditioned medium, anti-myc blot
Settings: glycan lost; control: wild-type ECM1-MH

B1: extracellular matrix protein 1 (ECM1): N444Q (protein)
parent chain: MGTTARAALVLTYLAVASAASEGGFTATGQRQLRPEHFQEVGYAAPPSPPLSRSLPMDHPDSSQHGPPFEGQSQVQPPPSQEATPLQQEKLLPAQLPAEKEVGPPLPQEAVPLQKELPSLQHPNEQKEGTPAPFGDQSHPEPESWNAAQHCQQDRSQGGWGHRLDGFPPGRPSPDNLNQICLPNRQHVVYGPWNLPQSSYSHLTRQGETLNFLEIGYSRCCHCRSHTNRLECAKLVWEEAMSRFCEAEFSVKTRPHWCCTRQGEARFSCFQEEAPQPHYQLRACPSHQPDISSGLELPFPPGVPTLDNIKNICHLRRFRSVPRNLPATDPLQRELLALIQLEREFQRCCRQGNNHTCTWKAWEDTLDKYCDREYAVKTHHHLCCRHPPSPTRDECFARRAPYPNYDRDILTIDIGRVTPNLMGHLCGNQRVLTKHKHIPGLIHNMTARCCDLPFPEQACCAEEEKLTFINDLCGPRRNIWRDPALCCYLSPGDEQVNCFNINYLRNVALVSGDTENAKGQGEQGSTGGTNISSTSEPKEE
For B1, the expression_or_secretion was “no change”.
